Assay results taken from the supplement of paper PMC6755084.

What follows are sequences tested on F1*sub RNA substrate (template-directed ligation) (assay: fraction ligated after 30 min (ligated reads / total reads); higher = more ligase activity; sequences stand for … in GAGACCGCAACTGAAAAGTTGT…AGTTCTGCACGTAGAAGCAAAAGGC). Conditions: 42 °C.
Outline: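 Templates from an oligo pool were PCR-amplified, transcribed with T7 and gel-purified to give the ribozyme variants. Ligated and unligated products were separated on gel, reverse transcribed using barcoded primers, and read on a MiSeq. A quality filter of ≥20 was applied to core bases. Fraction ligated was taken as ligated reads as a share of all reads per variant.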
In the case of “TATCACTTGTCGTAAGCACTTTGGTGGTTGA [3d2142]”, the fraction ligated is reported as 0.118. Sequence “TATCACTTGTCGTAAGCACTTTGTGGGTTGA [3d2136]” has a fraction ligated of 0.0369. “TATCACTTGTCGTAAGCATTGGATGGGTTGA [3d2121]” was tested, and the fraction ligated was 0.756. “TATCACTTGTCGTAAGCATTTGATGGGTTGA [3d2122]” showed a fraction ligated of 0.408. In the case of “TATCACTTGTCGTAAGCATTTGGAGGGTTGA [3d2124]”, the fraction ligated is reported as 0.0316. Sequence “TATCACTTGTCGTAAGCATTTGGATGGGTTA [3d2126]” has a fraction ligated of 0.784. “TATCACTTGTCGTAAGCATTTGGATGGGTTG [3d2127]” gave a fraction ligated of 0.833. Work on “TATCACTTGTCGTAAGCATTTGGATGGGTTGA [2d246]” yielded a fraction ligated of 0.849. For “TATCACTTGTCGTAAGCATTTGGATGGTTGA [3d2125]”, the fraction ligated was 0.17. In the case of “TATCACTTGTCGTAAGCATTTGGTGGGTTGA [3d2123]”, the fraction ligated is reported as 0.0465. In the case of “TATCACTTGTCGTAAGCCTTGGATGGGTTGA [3d2114]”, the fraction ligated is reported as 0.778. “TATCACTTGTCGTAAGCCTTTGATGGGTTGA [3d2115]” showed a fraction ligated of 0.718. For “TATCACTTGTCGTAAGCCTTTGGAGGGTTGA [3d2117]”, the fraction ligated was 0.252. “TATCACTTGTCGTAAGCCTTTGGATGGGTTA [3d2119]” showed a fraction ligated of 0.79. Sequence “TATCACTTGTCGTAAGCCTTTGGATGGGTTG [3d2120]” has a fraction ligated of 0.782. “TATCACTTGTCGTAAGCCTTTGGATGGGTTGA [2d245]” was tested, and the fraction ligated was 0.781. “TATCACTTGTCGTAAGCCTTTGGATGGTTGA [3d2118]” gave a fraction ligated of 0.364. Sequence “TATCACTTGTCGTAAGCCTTTGGTGGGTTGA [3d2116]” has a fraction ligated of 0.243. “TATCACTTGTCGTAAGCTTTGGATGGGTTGA [3d2105]” was tested, and the fraction ligated was 0.759. “TATCACTTGTCGTACACTTTGGATGGGTTGA [3d1981]” showed a fraction ligated of 0.797. For “TATCACTTGTCGTAGAACTTGGATGGGTTGA [3d2014]”, the fraction ligated was 0.845. “TATCACTTGTCGTAGAACTTTGATGGGTTGA [3d2015]” was tested, and the fraction ligated was 0.848. “TATCACTTGTCGTAGAACTTTGGAGGGTTGA [3d2017]” showed a fraction ligated of 0.119. Sequence “TATCACTTGTCGTAGAACTTTGGATGGGTTA [3d2019]” has a fraction ligated of 0.854. “TATCACTTGTCGTAGAACTTTGGATGGGTTG [3d2020]” gave a fraction ligated of 0.854. In the case of “TATCACTTGTCGTAGAACTTTGGATGGGTTGA [2d224]”, the fraction ligated is reported as 0.864. Sequence “TATCACTTGTCGTAGAACTTTGGATGGTTGA [3d2018]” has a fraction ligated of 0.206. For “TATCACTTGTCGTAGAACTTTGGTGGGTTGA [3d2016]”, the fraction ligated was 0.138. Sequence “TATCACTTGTCGTAGAATTTGGATGGGTTGA [3d2013]” has a fraction ligated of 0.832. “TATCACTTGTCGTAGACACTGGATGGGTTGA [3d2035]” gave a fraction ligated of 0.778. For “TATCACTTGTCGTAGACACTTGATGGGTTGA [3d2036]”, the fraction ligated was 0.657. “TATCACTTGTCGTAGACACTTGGAGGGTTGA [3d2038]” was tested, and the fraction ligated was 0.0635. “TATCACTTGTCGTAGACACTTGGATGGGTTA [3d2040]” was tested, and the fraction ligated was 0.757. “TATCACTTGTCGTAGACACTTGGATGGGTTG [3d2041]” showed a fraction ligated of 0.782. In the case of “TATCACTTGTCGTAGACACTTGGATGGGTTGA [2d227]”, the fraction ligated is reported as 0.803. “TATCACTTGTCGTAGACACTTGGATGGTTGA [3d2039]” was tested, and the fraction ligated was 0.095. For “TATCACTTGTCGTAGACACTTGGTGGGTTGA [3d2037]”, the fraction ligated was 0.105. With “TATCACTTGTCGTAGACACTTTATGGGTTGA [3d2042]” the fraction ligated was 0.128. “TATCACTTGTCGTAGACACTTTGAGGGTTGA [3d2044]” was tested, and the fraction ligated was 0.0374. For “TATCACTTGTCGTAGACACTTTGATGGGTTA [3d2046]”, the fraction ligated was 0.156. “TATCACTTGTCGTAGACACTTTGATGGGTTG [3d2047]” showed a fraction ligated of 0.754. In the case of “TATCACTTGTCGTAGACACTTTGATGGGTTGA [2d228]”, the fraction ligated is reported as 0.789. “TATCACTTGTCGTAGACACTTTGATGGTTGA [3d2045]” gave a fraction ligated of 0.0405. In the case of “TATCACTTGTCGTAGACACTTTGGAGGGTTA [3d2053]”, the fraction ligated is reported as 0.0985. “TATCACTTGTCGTAGACACTTTGGAGGGTTG [3d2054]” was tested, and the fraction ligated was 0.0621. “TATCACTTGTCGTAGACACTTTGGAGGGTTGA [2d230]” gave a fraction ligated of 0.167. “TATCACTTGTCGTAGACACTTTGGAGGTTGA [3d2052]” was tested, and the fraction ligated was 0.072. Work on “TATCACTTGTCGTAGACACTTTGGATGGGTT [3d2057]” yielded a fraction ligated of 0.819. “TATCACTTGTCGTAGACACTTTGGATGGGTTA [2d232]” was tested, and the fraction ligated was 0.825. In the case of “TATCACTTGTCGTAGACACTTTGGATGGGTTG [2d233]”, the fraction ligated is reported as 0.843. Sequence “TATCACTTGTCGTAGACACTTTGGATGGTTA [3d2055]” has a fraction ligated of 0.406. “TATCACTTGTCGTAGACACTTTGGATGGTTG [3d2056]” was tested, and the fraction ligated was 0.452. With “TATCACTTGTCGTAGACACTTTGGATGGTTGA [2d231]” the fraction ligated was 0.678. “TATCACTTGTCGTAGACACTTTGGGGGTTGA [3d2048]” was tested, and the fraction ligated was 0.0891. In the case of “TATCACTTGTCGTAGACACTTTGGTGGGTTA [3d2050]”, the fraction ligated is reported as 0.0674. “TATCACTTGTCGTAGACACTTTGGTGGGTTG [3d2051]” showed a fraction ligated of 0.101. “TATCACTTGTCGTAGACACTTTGGTGGGTTGA [2d229]” was tested, and the fraction ligated was 0.287. With “TATCACTTGTCGTAGACACTTTGGTGGTTGA [3d2049]” the fraction ligated was 0.0676. With “TATCACTTGTCGTAGACACTTTGTGGGTTGA [3d2043]” the fraction ligated was 0.0334. With “TATCACTTGTCGTAGACATTGGATGGGTTGA [3d2028]” the fraction ligated was 0.815. In the case of “TATCACTTGTCGTAGACATTTGATGGGTTGA [3d2029]”, the fraction ligated is reported as 0.309. “TATCACTTGTCGTAGACATTTGGAGGGTTGA [3d2031]” was tested, and the fraction ligated was 0.0197. “TATCACTTGTCGTAGACATTTGGATGGGTTA [3d2033]” showed a fraction ligated of 0.799. “TATCACTTGTCGTAGACATTTGGATGGGTTG [3d2034]” was tested, and the fraction ligated was 0.815. For “TATCACTTGTCGTAGACATTTGGATGGGTTGA [2d226]”, the fraction ligated was 0.842. Work on “TATCACTTGTCGTAGACATTTGGATGGTTGA [3d2032]” yielded a fraction ligated of 0.147. “TATCACTTGTCGTAGACATTTGGTGGGTTGA [3d2030]” showed a fraction ligated of 0.0449. With “TATCACTTGTCGTAGACCTTGGATGGGTTGA [3d2021]” the fraction ligated was 0.79. In the case of “TATCACTTGTCGTAGACCTTTGATGGGTTGA [3d2022]”, the fraction ligated is reported as 0.759. “TATCACTTGTCGTAGACCTTTGGAGGGTTGA [3d2024]” was tested, and the fraction ligated was 0.211. “TATCACTTGTCGTAGACCTTTGGATGGGTTA [3d2026]” showed a fraction ligated of 0.798. Work on “TATCACTTGTCGTAGACCTTTGGATGGGTTG [3d2027]” yielded a fraction ligated of 0.777. In the case of “TATCACTTGTCGTAGACCTTTGGATGGGTTGA [2d225]”, the fraction ligated is reported as 0.814. “TATCACTTGTCGTAGACCTTTGGATGGTTGA [3d2025]” showed a fraction ligated of 0.344. For “TATCACTTGTCGTAGACCTTTGGTGGGTTGA [3d2023]”, the fraction ligated was 0.234. “TATCACTTGTCGTAGACTTTGGATGGGTTGA [3d2003]” showed a fraction ligated of 0.814. In the case of “TATCACTTGTCGTAGCACTTGGATGGGTTGA [3d2006]”, the fraction ligated is reported as 0.741. “TATCACTTGTCGTAGCACTTTGATGGGTTGA [3d2007]” showed a fraction ligated of 0.761. For “TATCACTTGTCGTAGCACTTTGGAGGGTTGA [3d2009]”, the fraction ligated was 0.101. Work on “TATCACTTGTCGTAGCACTTTGGATGGGTTA [3d2011]” yielded a fraction ligated of 0.728. “TATCACTTGTCGTAGCACTTTGGATGGGTTG [3d2012]” gave a fraction ligated of 0.792. Sequence “TATCACTTGTCGTAGCACTTTGGATGGGTTGA [2d223]” has a fraction ligated of 0.823.
